Assay results reported in the domain aggregation screens of Martell et al. (2025).

Assay: soluble fraction after stress (log2 fold change); higher = more stays soluble; pooled small domains, quantitative proteomics
Conditions: stress: 50 degC
Procedure, shortened: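 Pooled custom libraries of small protein domains were measured in a high-throughput format, with quantitative proteomics as the read-out. Each library was stressed at 50°C. Aggregation propensity is given as the base-two logarithm of the fold change in how much of each protein stays soluble after the stress. Higher values mean a larger share of the protein remains in solution.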

HMNQGKLIEMLQEMKEIAHSQNNYLTKNEIANYLGDTVLSKEQLQAVYHYLGENHIEVEGYVYIP
soluble fraction (log2): 0.035

HMNQIATSTQAIITTLSFLNTSSIFKLPVGDTASRPTGVSPGTLRFNSQEDSAEIYKADDGTGSAGWTEVA
soluble fraction (log2): 0.0743

HMNQIDEATAATITTLNFLNTNSEFKIPVGDTATRPGTPAIGMMRFNSENDKAEIYVADFDGDGNPGWINL
soluble fraction (log2): -0.189

HMNQILDFTREVKNLPEQDKIKIVEALWSIIYSNKDADIYETNLMRRLAGLLYIDNKTMGDIKEKIKQNL
soluble fraction (log2): -0.601

HMNQNHFLDSVVEFAKDEASRAFFQKAVKKLGEGLVEEAMGEVKMREADGSVNSRAPYFIALLENWMENR
soluble fraction (log2): 0.0128

HMNQNIYVPKLEGLQIEEASSILKSKGLNIEITDSIFRKDAVPGAIIEQTPKPNSRVKTGRNIYVSIYSK
soluble fraction (log2): -0.0536

HMNQSEMIGSRLKEERLQQKLTLKQLSEKVGLSIGYLSQVERGYGTLSLSALKKLSSALGLEMSTFFD
soluble fraction (log2): -0.992

HMNQTGQYENAAKRFNQLITIDSSDKRAYLQLGISNYNLGNKEKADSLFNIIRNSKDKLLIEELDNFLT
soluble fraction (log2): 0.0481

HMNQYALTDREKNVLGLLVDGLSYKMIADKENISFHTVNAHVRKIYEKLHVHSLAEAVSKALKENL
soluble fraction (log2): -1.29

HMNQYRKLDGDVQNQIIYILSEYPKLPATIVYQRLLDTNTIVKKDVSLSTVNRFVQKYKDSKGIT
soluble fraction (log2): -1.05

HMNREDYIKAIFKIAEREGEASNQRIADSLGVSRASASEMVKKLIQEGFVVAEGRQLSLSAEGERIA
soluble fraction (log2): 0.0824

HMNREEKKALTRRQIIDVATRLFRQHGIHNTDLKTIATEAGVSVVTFYKYFDSKEALIGTIAAEQ
soluble fraction (log2): -0.281

HMNRNHVFDSNGPDLRLRGTAQQLFEKYLQLGRDATSGGDRVMAEGYFQHAEHYFRILNAMNQAAMQH
soluble fraction (log2): -0.68

HMNRPYETLFTGLTTDEASAIVGKLEEYGAADYKIEGDTIKVPAAQEPDLKAKLLLDGYPKS
soluble fraction (log2): 0.105

HMNRTEYMAALRRALSVLPEEERASALRYYEEYFDDAGPENEEKVIADLGAPEKVAGQILADYRE
soluble fraction (log2): 0.00316

HMNSDQMKEHLDNLVDMAKKNDNTLIDTEIVNYFVGKPDIELNTDMMTKIFDYLDEHHVAVLS
soluble fraction (log2): -0.107

HMNSEFPFNGGRIVDNVPANRLQIFFDEKPDADVRTRLKQNGFRWAPNSGAWQSYRHGYTLDWARREFNA
soluble fraction (log2): 0.134

HMNSEPKTKLQEIAQERGLAAPVYETTHTGPDHDRIFSASVTVGDVVAAGEARSRKGAESEAAIAAIKALG
soluble fraction (log2): 0.212

HMNSFGWESLIDKEGIADTDLHPSGWVRIDDRRIFVVSEGDFIDKGSGVTVLSVDGNRVVVRELI
soluble fraction (log2): -0.836

HMNSHLEEGRHGLQIGDPGIVRARIESDPEGETDMPVVVIDGRNISWNEFGRMVATYTGFQFKLEM
soluble fraction (log2): -0.515

HMNSHQNELDNALTEAHTASRRLLEGTDEYLDLSSQPAYIRRLQHLLAQKYNLGSLSSGVEPNRHIRLLQ
soluble fraction (log2): -0.143

HMNSIDIENELVKIIEKNGQPMSFDDLVFKLDSLYSTRYKFAKGYIRTIILNSNRIASIGKTSTYSLYKWN
soluble fraction (log2): -2.25

HMNSKKETLLSYLYNHSTWSSRNDLSNFLNVSTRQVTNYINEINKNETIVLSSNKGYKINPKFIGKN
soluble fraction (log2): -0.611

HMNSKMTYSDLIGNIEQGNVSSVELASDGKSATVTLTDNSQKQVNIPSLDSFVTYVQDHIKAGTLSVEE
soluble fraction (log2): 0.000127

HMNSKSDDELLSKTTSLLIHAAKIDENYTDKEKEIIKKTLIQLGVKESKADQIMLTAEINEE
soluble fraction (log2): ≥ 0.62

HMNSKYILLQVSDIPKTSLVLERQFGVTEYSVQDEHTLRIYDTSLDMAAVNKALVVQDIAVISSQL
soluble fraction (log2): -0.353

HMNSLFPLSLKYLREQANITQAELAQKLDVTQQAVGRWERGQTSPDYETLKRLSVLFNVSVDYLLGV
soluble fraction (log2): -0.304

HMNSNIIKTINDELSIRKGKYGPYIMYKTKKMKRPKFKSIGDNTPDEFLADKGSISEIILWIN
soluble fraction (log2): -0.444

HMNSSHRLIGLDPGLRVTGWGIVDAIGTKLVHVANGSVKSQQNAPLATRLLELENGLEEVFDNWQPDFA
soluble fraction (log2): 0.148

HMNSVLPQEVKSSLNDFFTKYAPGSIAQKLINHASFTGGKVVVTGVELTQTQADDLKKAFKDKFF
soluble fraction (log2): 0.000827

HMNSVTLEHIVYDFRVFNMLKGSGINDIDELIKAAEDGRLFKIIGSNLTYKRIKKSAAEFGVILPDKPG
soluble fraction (log2): -0.351

HMNSVYTPDPKELAKAIKIVTAAREAEQKGQGVIAVDGRMVDAPVVSQALRILELARLAGMEVSE
soluble fraction (log2): 0.0244

HMNTAIPIAIDQLRIGMYIQLGLNWMSHPFPVSSFRIASESQIEILRGLGLAEVRYVPAKSDPVP
soluble fraction (log2): -2.88

HMNTDEYEQKRGEILDAAQRLIYTKGYERMSIQDILDELKISKGAFYHYFDSKQSLLEALTARMMTE
soluble fraction (log2): -0.101

HMNTDIHRLLDEAFVRVDMTPDAQHLKEEIRANLVARVDELEASGVPSADAARRAIAELGDVRELL
soluble fraction (log2): 0.17

HMNTFDLSKLEEIILASRDKAMKTKEFTELDNLKNLFITAGLDVQMSKNGIKLIKGPKFNSSLLEDF
soluble fraction (log2): -0.655

HMNTIIIDILPKGLSIAGNQTEPKSLIQQLLMARRADPAQPILLRPAIAVPVQNVVELIDRLTAAGI
soluble fraction (log2): -0.221
